Experimental data from patent US20180086841A1 (Merck Sharp & Dohme, published 2018).
One block for each binder: values may come before it.

Experiments:
human CD27 [1] = target: T1, human CD27 (human, UniProt P26842 21-260); assay: flow cytometry on transiently transfected CHO-K1 cells
T1 construct: also called hCD27; HsCD27

[2] = target: T2, Macaca mulatta CD27 (mmCD27) (Macaca mulatta (rhesus) / Macaca …, UniProt P26842 21-260 (human entry)); assay: as above
T2 construct: also called Rhesus CD27; rhesus monkey CD27
T2 chain: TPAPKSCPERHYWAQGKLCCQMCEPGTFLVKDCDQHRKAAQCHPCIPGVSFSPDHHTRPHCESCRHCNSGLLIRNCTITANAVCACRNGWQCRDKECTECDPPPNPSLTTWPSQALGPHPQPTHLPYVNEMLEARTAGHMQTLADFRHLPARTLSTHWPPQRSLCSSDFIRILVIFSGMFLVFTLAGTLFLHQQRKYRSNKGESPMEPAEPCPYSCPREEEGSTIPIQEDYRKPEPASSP

[3] = target: T2, Macaca mulatta CD27 (mmCD27); assay: cell ELISA on CD27-transfected CHOK1 cells, n=2
Procedure: (§1) Purified antibodies were assayed for binding to human CD27 expressing CHOK1 cells, human CD27 A59T expressing CHOK1 cells, and cross-reactivity to rhesus CD27 expressing CHOK1 cells using a cell-based ELISA format. Human CD27 expressing CHOK1 cells, human CD27 A59T expressing CHOK1 cells, and rhesus CD27 expressing CHOK1 cells were plated in 96-well tissue-culture plates in 50 μl of DMEM/F12, 10% BCS and gentamycin (CHO-K1 media). Cells were plated at either 2×10⁴ cells/well two days prior to the assay or 4×10⁴ cells/well one day prior to the assay. Media was removed from the wells prior to the assay followed by incubation of mAb in 100 μL fresh culture medium at a starting concentration of 10 μg/mL and 8 step 1:4 serial dilutions. The antibodies were incubated for 30-60 minutes at room temperature and washed 3 times with PBS/0.05% Tween 20 using a cell ELISA washing protocol on the Biotek EL405x Select CW plate washer. […] Assay plates were washed as above and developed with TMB and stopped with TMB stop solution (KPL cat#50-85-06) or 0.1N phosphoric acid. The plate was read on a Molecular Devices VersaMax plate reader at 450 nm/650 nm. Titration curves were used to determine the half-maximal effective concentration (EC₅₀).

human CD27 [4] = target: T1, human CD27; assay: cell ELISA on CD27-transfected CHOK1 cells, n=2
Procedure: as §1

human CD27 (A59T) [5] = target: T3, human CD27 (A59T) (human, UniProt P26842 21-260); assay: cell ELISA on CD27-transfected CHOK1 cells, n=2
T3 construct: also called hCD27 (A59T); human CD27 variant p.Ala59Thr
Procedure: as §1

[6] = target: T4, His9G-tagged human CD27 recombinant protein (human, UniProt P26842 21-191); assay: SPR Biacore 4000, antibody captured on anti-human Fc, His9G-tagged CD27 injected, 1:1 fit;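 also: Double-referenced SPR (blank anti-Fc surface and buffer injection subtracted), KD derived from association and dissociation rate constants, with human and cynomolgus CD27 as analytes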
T4 construct: In-house, transient transfection of HEK293 cells; also called Human CD27/His
Source text: (§2) Flow cell spots modified with anti-human Fc antibody but lacking CD27 antibodies were used as reference. […] The chip surface was regenerated with a 30 second injection of 3M MgCl₂ after each injection cycle.
(§3) Data were double referenced by subtracting the response from a blank surface and that from a buffer injection and used for analyzing the rate constant of association (kₐ) and dissociation (kd), and the equilibrium dissociation constant KD. The resulting data sets were fitted with a Langmuir 1:1 binding model using the Biacore 4000 BIAevaluation software, version 1.0 (GE/Biacore).

[7] = target: T5, His9G-tagged cynomolgus CD27 recombinant protein (cynomolgus, limits assumed); assay: as above
T5 construct: In-house, transient transfection of HEK293 cells; also called Cyno CD27/His
T5 chain: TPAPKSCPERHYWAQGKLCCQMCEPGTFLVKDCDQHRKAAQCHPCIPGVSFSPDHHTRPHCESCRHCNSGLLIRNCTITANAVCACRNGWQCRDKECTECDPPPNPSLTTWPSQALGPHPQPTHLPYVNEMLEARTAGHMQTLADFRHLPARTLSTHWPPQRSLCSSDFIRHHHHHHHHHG
Source text: as §2, §3

human CD27 [8] = target: T1, human CD27; assay: cell ELISA on human CD27 CHOK1 cells, hIgG1
Procedure: Purified antibodies were assayed for binding to human CD27 expressing CHOK1 cells using a cell-based ELISA format. Human CD27 expressing CHOK1 cells were plated in 96-well tissue-culture plates in 50 μl of DMEM/F12, 10% BCS (bovine calf serum) (CHO-K1 media). Cells were plated at either 2×10⁴ cells/well two days prior to the assay or 4×10⁴ cells/well one day prior to the assay. Media was removed from the wells prior to the assay followed by incubation of mAb in 100 μL fresh culture medium at a starting concentration of 10 μg/mL and 8 step 1:5 serial dilutions (hIgG4 antibodies) or starting concentration of 50 μg/mL and 8 step 1:5 serial dilutions (hIgG1 antibodies). The antibodies were incubated for 30-60 minutes at room temperature and washed 3 times with PBS/0.05% Tween 20 using a cell ELISA washing protocol on the Biotek EL405x Select CW plate washer.

[9] = target: T2, Macaca mulatta CD27 (mmCD27); assay: cell-based or functional assay
[10] = target: T2, Macaca mulatta CD27 (mmCD27); assay: flow cytometry MFI, CD4+ T cells in rhesus peripheral blood, n=4
Procedure: (§4) Upon receipt, blood was visually confirmed to be devoid of obvious signs of lysis or clotting. […] Red blood cells (RBCs) were then lysed by incubation with 1.7 mL of Ammonium-Chloride-Potassium red blood cell lysing solution (Life Technologies, catalog no. A10492-01) for 5 minutes. The lysis step was repeated once more with 2 ml of ACK lysing solution, and then again with 300 ml of ACK lysing solution. Cells were then washed after adding 1.7 ml of phosphate buffered saline (PBS) (Hyclone, catalog no. SH30028.02). […] After a final wash in SB, samples were acquired in a LSR-Fortessa flow cytometer (BD Biosciences) using the high throughput sampler and data analyzed by FlowJo software (Tree Star Inc).

[11] = target: T2, Macaca mulatta CD27 (mmCD27); assay: cell-based or functional assay
human CD27 [12] = target: T1, human CD27; assay: cell-based or functional assay
human CD27 (A59T) [13] = target: T3, human CD27 (A59T); assay: cell-based or functional assay
human CD27 [14] = target: T1, human CD27; assay: flow cytometry MFI, CD8+ T cells of human PBMC, N=2 donors
Procedure: (§5) Labeled cells were washed by re-suspending them in 150 ul of staining buffer (SB) followed by centrifugation at 300 g for 5 minutes. Cells were then resuspended in 100 ul of SB containing primary anti-CD27 antibodies at various concentrations, incubated in the dark at 4° C. for 30 minutes, followed by washing and centrifugation steps as previously described. […] Cells were incubated for 30 minutes at 4° C. in the dark, followed by washing and centrifugation steps. Next, cells were stained with a cocktail of phenotypic antibodies for surface markers (CD3, CD4, CD8, CD11b) and incubated for 30 minutes at 4° C. in the dark, followed by washing and centrifugation steps. […] Samples were acquired in a LSR-Fortessa flow cytometer (BD Biosciences) using the high throughput sampler and data analyzed by FlowJo software (Tree Star Inc).

human CD27 [15] = target: T1, human CD27; assay: flow cytometry MFI, CD4+ T cells of human PBMC, N=2 donors
Procedure: as §5

human CD27 [16] = target: T1, human CD27; assay: flow cytometry MFI, CD4+ T cells in human peripheral blood, n=4
Procedure: as §4

human CD27 [17] = target: T1, human CD27; assay: flow cytometry MFI, CD8+ T cells in human peripheral blood, n=4
Procedure: as §4

[18] = target: T6, human CD27 A59T-Fc fusion protein (human, UniProt P26842 21-191); assay: SPR Biacore T200, CD27-Fc amine-coupled, antibody injected, 1:1 Langmuir fit
T6 construct: not shown: Fc part
T6 chain: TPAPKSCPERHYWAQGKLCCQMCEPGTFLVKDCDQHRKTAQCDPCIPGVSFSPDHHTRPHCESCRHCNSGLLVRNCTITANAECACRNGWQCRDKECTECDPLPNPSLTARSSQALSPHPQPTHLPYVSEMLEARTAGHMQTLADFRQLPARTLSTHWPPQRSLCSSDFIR

[19] = target: T7, human CD27-Fc fusion protein (human, UniProt P26842 21-191); assay: as above
T7 construct: not shown: Fc part

[20] = target: T8, rhesus macaque CD27-Fc fusion protein (rhesus macaque, UniProt P26842 21-191 (human entry), limits assumed); assay: as above
T8 construct: not shown: Fc part
T8 chain: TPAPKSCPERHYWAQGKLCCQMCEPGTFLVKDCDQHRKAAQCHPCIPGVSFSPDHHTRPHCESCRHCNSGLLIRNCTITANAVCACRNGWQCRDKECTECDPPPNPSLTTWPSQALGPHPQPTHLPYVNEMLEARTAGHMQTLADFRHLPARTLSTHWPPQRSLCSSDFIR

[21] = target: T2, Macaca mulatta CD27 (mmCD27); assay: flow cytometry MFI, CD8+ T cells in rhesus peripheral blood, n=4
Procedure: as §4

[22] = target: T2, Macaca mulatta CD27 (mmCD27); assay: cell-based or functional assay
human CD27 [23] = target: T1, human CD27; assay: cell-based or functional assay; remark: listed apart in the source
human CD27 (A59T) [24] = target: T3, human CD27 (A59T); assay: cell-based or functional assay; remark: listed apart in the source

EC50 [3]: 54 pM
EC50 (human CD27 [4]): 72 pM
EC50 (human CD27 (A59T) [5]): 97 pM
Kd [6]: 65200 pM
Kd [7]: 51500 pM
EC50 (human CD27 [8]): 155 pM
NF-κB-luciferase reporter assay, potency against human CD27 [9]: ~7 fold
EC50 [10]: 170 pM
NF-κB-luciferase reporter assay, EC50 [11]: 290 pM
NF-κB-luciferase reporter assay, Emax [11]: 2.11 fold change
NF-κB-luciferase reporter assay, EC50 (human CD27 [12]): 2220 pM
NF-κB-luciferase reporter assay, Emax (human CD27 [12]): 2.96 fold change
NF-κB-luciferase reporter assay, EC50 (human CD27 (A59T) [13]): 4720 pM
NF-κB-luciferase reporter assay, Emax (human CD27 (A59T) [13]): 3.22 fold change
EC50 (human CD27 [14]): 123 pM
EC50 (human CD27 [15]): 137 pM
EC50 (human CD27 [16]): 320 pM
EC50 (human CD27 [17]): 300 pM
Kd [18]: 7300 pM
Kd [19]: 5100 pM
Kd [20]: 4300 pM
EC50 [21]: 220 pM
B2: 131AVH6VL6-hIgG1 (antibody)
heavy: not shown
light: EIVLTQSPATLSLSPGERATLSCSASSSVSYMHWYQQKPGQAPKRWIYDTSKLASGVPARFSGSGSGTDYSLTISSLEPEDFAVYYCQQWNSYPFTFGQGTKLEIKRTVAAPSVFIFPPSDEQLKSGTASVVCLLNNFYPREAKVQWKVDNALQSGNSQESVTEQDSKDSTYSLSSTLTLSKADYEKHKVYACEVTHQGLSSPVTKSFNRGEC
notes: also called hCD27.131A VH6VL6 huIgG1

Kd [18]: 8200 pM
Kd [19]: 6400 pM
Kd [20]: 5500 pM
B3: 131AVH6VL6-hIgG2 (antibody)
heavy: EIQLVQSGAEVKKPGASVKVSCKASGYTFTNYGMNWVKQAPGQGLKWMGWINTNTGEPTYAEEFKGRFTFTLDTSISTAYMELSSLRSEDTAVYYCAREGDAMDYWGQGTTVTVSSASTKGPSVFPLAPCSRSTSESTAALGCLVKDYFPEPVTVSWNSGALTSGVHTFPAVLQSSGLYSLSSVVTVPSSNFGTQTYTCNVDHKPSNTKVDKTVERKCCVECPPCPAPPVAGPSVFLFPPKPKDTLMISRTPEVTCVVVDVSHEDPEVQFNWYVDGVEVHNAKTKPREEQFNSTFRVVSVLTVVHQDWLNGKEYKCKVSNKGLPAPIEKTISKTKGQPREPQVYTLPPSREEMTKNQVSLTCLVKGFYPSDIAVEWESNGQPENNYKTTPPMLDSDGSFFLYSKLTVDKSRWQQGNVFSCSVMHEALHNHYTQKSLSLSPGK
light: EIVLTQSPATLSLSPGERATLSCSASSSVSYMHWYQQKPGQAPKRWIYDTSKLASGVPARFSGSGSGTDYSLTISSLEPEDFAVYYCQQWNSYPFTFGQGTKLEIKRTVAAPSVFIFPPSDEQLKSGTASVVCLLNNFYPREAKVQWKVDNALQSGNSQESVTEQDSKDSTYSLSSTLTLSKADYEKHKVYACEVTHQGLSSPVTKSFNRGEC
notes: also called 131A6 IgG2 (humanized)

The remaining lines, values behind:

B1: hCD27.15-c4 (antibody, human IgG4 S228P, kappa, V domains shown)
VH: EVRLQQSGADLVKPGASVKLSCTASGFIIKATYMHWVRQRPEQGLEWIGRIDPANGETKYDPKFQVKATITADTSSSTAYLQLNSLTSDDTAVYYCARYAWYFDVWGAGTTVTVSS
VL: DIQMTQSPASLSASVGDTVTITCRASENIYSFLAWYHQKQGRSPQLLVYHAKTLAEGVPSRFSGSGSGTQFSLKINSLQAEDFGSYYCQHYYGSPLTFGAGTKLEVKR
notes: also called hCD27.15 (chimeric c-4); C4-hCD27.15 chimeric antibody
binding result (human CD27 [1]): binds
binding result [2]: no binding

B4: hCD27.15-4B IgG4 (antibody, V domains shown)
VH: QVQLVQSGAEVKKPGASVKVSCKASGFIIKATYMHWVRQAPGQRLEWMGRIDPANGETKYDPKFQVRVTITADTSASTAYMELSSLRSEDTAVYYCARYAWYFDVWGQGTLVTVSS
VL: DIQMTQSPSSLSASVGDRVTITCRASENIYSFLAWYQQKPGKAPKLLIYHAKTLAEGVPSRFSGSGSGTDFTLTISSLQPEDFATYYCQHYYGSPLTFGQGTKVEIKR
NF-κB-luciferase reporter assay, Fold Change values at 2.5 µg/ml [22]: 0.99 fold change
NF-κB-luciferase reporter assay, Fold Change values at 2.5 µg/ml (human CD27 [23]): 1.82 fold change
NF-κB-luciferase reporter assay, Fold Change values at 2.5 µg/ml (human CD27 (A59T) [24]): 0.97 fold change
